In assay [1] the target is taxol-stabilised microtubules (polymerised tubulin). In words: co-sedimentation; microtubule binding assay; increasing concentrations of FPC4 fragment with 7.2 μM polymerised tubulin in PEMD, 1 h at 22°C, 16,100 g; pellets and supernatants on SDS-PAGE.
The target in assay [2] is BILBO1-Edge-Mut (K60A/K62A), bacterially expressed BILBO1-NTD’ (Trypanosoma brucei). In words: ITC; 25°C, 20 mM Tris-HCl pH 8.0, 50 mM NaCl; 50 μM BILBO1-NTD’ in the cell titrated with 600 μM FPC4-B1BD; one-site binding model. On the technique in general: Isothermal titration calorimetry measures the heat released or taken up as one component is titrated into another.
Assay [3] has as its target T1, BILBO1-NTD’ (aa 1–120) (Trypanosoma brucei, UniProt Q382W6 1-120).
T1 construct: BILBO1 of Trypanosoma brucei, Tb927.11.12150, aa 1-120, cloned into pET-15b; also called TbBILBO1-NTD’; 6His-BILBO1-NTD’; source: E. coli, purified (Ni-HiTrap, tag removed with thrombin, Superdex-200); not shown: His6, N-terminal, cleaved
T1 sequence (looked up): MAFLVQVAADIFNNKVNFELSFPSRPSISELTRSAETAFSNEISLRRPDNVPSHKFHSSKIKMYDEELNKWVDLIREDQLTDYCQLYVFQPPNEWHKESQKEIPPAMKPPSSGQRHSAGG
As to the kind of experiment: SEC-MALS; static light scattering on Superdex 200 10/300 GL; purified proteins mixed at molar ratio ~1:2, total 2 mg/ml, 30 min at room temperature. Conditions: both partners purified.

Assay [4] addresses T1, BILBO1-NTD’ (aa 1–120). As to the kind of experiment: ITC; 25°C, 20 mM Tris-HCl pH 8.0, 50 mM NaCl; 50 μM BILBO1-NTD’ in the cell titrated with 600 μM FPC4-B1BD; one-site binding model. To be noted: both partners purified.
A further assay addresses T2, FPC4-B1BD (aa 357–440) (Trypanosoma brucei, UniProt Q57YN8 357-440).
T2 chain: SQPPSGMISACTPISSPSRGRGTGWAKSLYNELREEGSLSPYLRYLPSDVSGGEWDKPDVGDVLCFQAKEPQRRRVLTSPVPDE
As to the kind of experiment: ITC.

In turn, FPC4-1-260-6His (domain or fragment) had a saturating concentration in assay [1] of 5.6 µM. For the molecule “FPC4-B1BD (aa 357–440) (from UniProt Q57YN8 357-440) (domain or fragment)”, the Kd (as a rule, a measure of binding affinity in units of concentration) in assay [2] was 18 µM.

B1: FPC4-B1BD (aa 357–440) (domain or fragment, Trypanosoma brucei, UniProt Q57YN8 357-440, looked up)
chain: T2 chain
notes: FPC4 of Trypanosoma brucei, Tb927.8.6370, aa 357-440, cloned into the custom vector MalpET; also called TbFPC4-B1BD; MBP-tagged FPC4-B1BD; source: E. coli, purified (Ni-HiTrap, tag removed with TEV, Superdex-200); not shown: MBP, N-terminal, cleaved; His10, N-terminal, cleaved
For B1, the stoichiometry N (commonly the number of molecules, sites or subunits per partner or assembly) with BILBO1-NTD’ (aa 1–120) [3] is 1. In the assay with BILBO1-NTD’ (aa 1–120) [4], this molecule returned a Kd of roughly 5 µM.

B2: BILBO1-NTD’ (aa 1–120) (domain or fragment)
chain: T1 sequence (looked up)
The molecule B2 had a Kd in the assay with FPC4-B1BD (aa 357–440) of 5.4 µM.

Source of the values: article PMC5683654, “Interaction between the flagellar pocket collar and the hook complex via a novel microtubule-binding protein in Trypanosoma brucei” (PLoS Pathogens, 2017).
